T1: human CD133 protein (coated on ELISA wells) (human) (UniProt O43490)
T1 sequence: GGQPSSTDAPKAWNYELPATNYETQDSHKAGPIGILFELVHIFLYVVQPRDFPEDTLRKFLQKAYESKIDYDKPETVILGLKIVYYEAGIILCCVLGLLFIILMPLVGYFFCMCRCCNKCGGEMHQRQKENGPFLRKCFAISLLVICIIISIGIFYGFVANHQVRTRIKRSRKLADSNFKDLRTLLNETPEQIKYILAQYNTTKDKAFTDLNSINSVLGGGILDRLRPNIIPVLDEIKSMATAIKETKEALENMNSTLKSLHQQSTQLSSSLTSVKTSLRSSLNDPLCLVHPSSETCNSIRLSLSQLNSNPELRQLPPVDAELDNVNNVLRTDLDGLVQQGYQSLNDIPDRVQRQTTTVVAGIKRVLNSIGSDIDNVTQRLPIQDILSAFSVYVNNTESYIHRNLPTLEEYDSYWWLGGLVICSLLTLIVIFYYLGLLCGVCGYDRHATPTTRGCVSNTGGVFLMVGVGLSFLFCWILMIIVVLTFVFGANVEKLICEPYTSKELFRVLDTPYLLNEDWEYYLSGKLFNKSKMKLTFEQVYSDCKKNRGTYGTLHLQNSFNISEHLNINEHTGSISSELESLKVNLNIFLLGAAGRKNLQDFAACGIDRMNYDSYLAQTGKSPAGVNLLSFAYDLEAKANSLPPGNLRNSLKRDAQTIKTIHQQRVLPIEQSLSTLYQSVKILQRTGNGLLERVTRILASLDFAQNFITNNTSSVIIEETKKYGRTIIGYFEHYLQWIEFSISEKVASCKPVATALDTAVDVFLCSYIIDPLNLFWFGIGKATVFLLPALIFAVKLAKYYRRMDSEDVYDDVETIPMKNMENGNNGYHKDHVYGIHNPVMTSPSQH

B1: anti-CD133 scFv clone 11, HA-tagged, secreted into bacterial culture supernatant (scFv, V domains shown)
VH: EVKLVESGPELKKPGETVKISCKASGYTFTDYSMHWVNQAPGKGLKWMGWINTETGEPSYADDFKGRFAFSLETSASTAYLQINNLKNEDTATYFCATDYGDYFDYWGQGTTLTVSS
VL: DIVLSQSPAIMSASPGEKVTISCSASSSVSYMYWYQQKPGSSPKPWIYRTSNLASGVPARFSGSGSGTSYSLTISSMEAEDAATYYCQQYHSYPPTFGAGTKLELK
B2: anti-CD133 scFv (clone 11) without HA epitope tag, FITC-labelled (scFv, V domains shown)
VH: B1 VH
VL: B1 VL

How the values were obtained:
[1] = target: T1, human CD133 protein (coated on ELISA wells) (human); test: ELISA
[2] = target: human CD133 on Caco-2 cells (Homo sapiens, endogenous in Caco-2, UniProt O43490); test: flow cytometry on cells

Binder | absorbance at 450 nm [1] [AU] | binding result [2]
B1 | 0.9 | 
B2 |  | binds

Source: publication PMC5527709 (Drug delivery and translational research, 2013)
